Experimental findings from publication PMC6614809, “The ATP-dependent chromatin remodelling enzyme Uls1 prevents Topoisomerase II poisoning” (Nucleic Acids Research, 2019) are described below.

For this assay, the target named is T1, Full length Top2 (HFP185), purified (budding yeast (S. cerevisiae), UniProt P06786 1-1428).
T1 construct: Topoisomerase II (Top2), yeast, full length; Called a homodimer in the methods; also called Topoisomerase II; yeast Top2
T1 sequence (looked up): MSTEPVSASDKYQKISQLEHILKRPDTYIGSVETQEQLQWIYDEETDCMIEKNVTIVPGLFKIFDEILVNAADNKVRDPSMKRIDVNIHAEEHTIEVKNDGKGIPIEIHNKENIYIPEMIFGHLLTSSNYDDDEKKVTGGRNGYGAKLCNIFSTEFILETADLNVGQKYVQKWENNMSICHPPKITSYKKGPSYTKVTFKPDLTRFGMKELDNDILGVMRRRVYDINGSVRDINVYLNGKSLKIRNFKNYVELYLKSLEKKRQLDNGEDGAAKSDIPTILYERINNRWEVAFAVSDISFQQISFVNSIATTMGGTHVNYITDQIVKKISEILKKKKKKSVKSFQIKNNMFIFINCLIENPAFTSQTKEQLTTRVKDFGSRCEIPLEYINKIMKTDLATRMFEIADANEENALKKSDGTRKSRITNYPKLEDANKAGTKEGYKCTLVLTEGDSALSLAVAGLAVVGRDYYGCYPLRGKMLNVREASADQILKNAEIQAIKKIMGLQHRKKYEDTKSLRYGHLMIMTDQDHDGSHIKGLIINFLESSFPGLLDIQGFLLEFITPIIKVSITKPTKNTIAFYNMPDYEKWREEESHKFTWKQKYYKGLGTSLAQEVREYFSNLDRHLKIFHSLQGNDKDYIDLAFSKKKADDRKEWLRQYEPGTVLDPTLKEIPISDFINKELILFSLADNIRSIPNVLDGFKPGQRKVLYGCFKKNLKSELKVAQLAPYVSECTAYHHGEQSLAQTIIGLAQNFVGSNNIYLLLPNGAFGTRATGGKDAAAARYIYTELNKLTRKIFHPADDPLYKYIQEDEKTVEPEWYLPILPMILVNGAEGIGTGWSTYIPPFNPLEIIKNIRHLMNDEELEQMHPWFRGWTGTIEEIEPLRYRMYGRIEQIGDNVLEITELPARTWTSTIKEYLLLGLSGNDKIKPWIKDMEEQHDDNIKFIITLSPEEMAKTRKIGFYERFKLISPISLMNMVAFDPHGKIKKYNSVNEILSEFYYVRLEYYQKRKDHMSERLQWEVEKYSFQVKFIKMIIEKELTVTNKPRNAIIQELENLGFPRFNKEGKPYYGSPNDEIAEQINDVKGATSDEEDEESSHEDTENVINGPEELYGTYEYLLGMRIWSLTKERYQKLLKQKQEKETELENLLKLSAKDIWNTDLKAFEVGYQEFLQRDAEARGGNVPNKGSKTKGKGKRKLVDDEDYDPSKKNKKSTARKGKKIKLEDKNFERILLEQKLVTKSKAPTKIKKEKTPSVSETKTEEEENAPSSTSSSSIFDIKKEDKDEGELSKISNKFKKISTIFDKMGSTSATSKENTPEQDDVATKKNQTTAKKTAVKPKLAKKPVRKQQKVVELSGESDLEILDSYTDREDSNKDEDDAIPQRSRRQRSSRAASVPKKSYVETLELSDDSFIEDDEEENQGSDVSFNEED
In words: pull-down; about 0.1 mg Uls1 fragment (bait) pre-bound to Strep-Tactin superflow beads; 200 ul Top2 (prey, 0.1 mg/ml) added, 1 h at 4 C; Pulldown buffer 25 mM HEPES pH 7.5, 150 mM KCl, 3 mM MgCl2, 5% glycerol, 1 mM DTT, 0.1% NP-40; three washes. The settings on record: both partners purified.

B1: Uls1 fragment 350-655, purified bait (domain or fragment, budding yeast (S. cerevisiae), UniProt Q08562 350-655, looked up)
chain: PSKNMDHTTHNSHDSEQKNSSIIILSDEDESGAGINDIESPLKVSEPNTADALRSSVPEVISLLDLPNIDLNNSVIKEASGSNSIPTSETDAQSSSSSVLQGTIMTEQATQSSQHECNSSLDTLKKNHQKLLKDLNSRESELRNALSCCKTNSEILRRKLSRREKEVSDAEKHWQLLLTSMARGGRTISSTQQILVDEAENQLNKLKEKRQLTKSKLDSINLKMYNYNEQWKSFVHSKNINLQKSLAALERSARDSKASATVNKRNECLAEKEKLDQMLKEGTLSFSTYKQLTGEIQQKLNDLKLG
notes: Tags are inferred from the resins used; also called bait protein; source: E. coli BL21(DE3)RIL, purified (TALON resin)
Turning to B1, the binding result is given as “binds”.
